Measured values: the supplement of paper PMC9170038

Tested on: MS2 coat protein
Experiment: apparent KD of MS2 coat protein; designed switch direction (-1 OFF switch, 1 ON switch): -1; higher = weaker reporter binding
Procedure, shortened: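 Each step of the titration lasted 0.8–1.5 h at the lowest concentration and 10–20 min at the highest. The protein, SNAP-549-labelled MS2 coat protein, went from 0.7 or 1.5 nM doubling to 3 µM over RNA switches transcribed on Illumina chips by stalled E. coli RNA polymerase. Normalised cluster fluorescence was curve-fitted, and the per-design median over clusters is given as apparent KD.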

[1] = Eterna round: R95, input ligand: FMN 200 uM
[2] = Eterna round: R95, input ligand: microRNA oligo, concentration not stated
[3] = Eterna round: R95, input ligand: none
[4] = input ligand: microRNA oligo, concentration not stated

Sequence | apparent KD of MS2 coat protein [1] | apparent KD of MS2 coat protein [2] | apparent KD of MS2 coat protein [3] | apparent KD of MS2 coat protein (input ligand: FMN 200 uM) | apparent KD of MS2 coat protein [4] | apparent KD of MS2 coat protein (input ligand: none)
GGUCGGCGAGGAUAUACAUGAGGAUCACCCAUGUGAUAGAGUGCACGCGUACGUGUACGUAGAAGGCGCUGACG [JL-ex3-3.28 salish99 mod] (puzzle: Exclusion 3) | 26.4 nM | 13.2 nM | 12.5 nM |  |  | 
CCGAAUAUGCAGGAUAUCUUAUCGGAAACGAUAAGAGAAGGGUAAACAUGAGGAUCACCCAUGUUCCUUAACGG [Mat - Exclusion 6 - Eli Mod - D80] (puzzle: Exclusion 6) |  | 18.9 nM |  |  |  | 
GGUCAGAUGGUAGGAUAUCUAUAUCGAGUGACCCUUUCAUAACAUGAGGAUCACCCAUGUCGGUGGGAGAAGGGCCGUACGGCG [salish99_ExNG02_R04_012] (Eterna round: R96, puzzle: Exclusion NG 2) |  |  |  | 41.1 nM | 30.6 nM | 40.2 nM
AAGAUGUGAGGAUAUCUAUUGAAGCGCGGUUCCCGGCAGAGAGAGAAGGCACAUGAGGAUCACCCAUGUAUAGC [Eternabot (L1) Solution 53] (Eterna round: R97, puzzle: Exclusion 4) |  |  |  | 56.5 nM |  | 20.6 nM
CACCGUAACAGAGGAUAUGAAACAUGAGGAUCACCCAUGUAAUAAAUGAGAAUUUCGAAUGUACCUCAGAAGGCUGAAACCGGC [Ostricism 82 - Jieux - Exclusion NG 2] (Eterna round: R96, puzzle: Exclusion NG 2) |  |  |  | 56.8 nM | 31.9 nM | 43 nM
UAAAUGUGAGGAUAUCAGGUGUGCUAGAAUACUGGUACAUCUGAGAAGGCACAUGAGGAUCACCCAUGUUCCUU [Mat - Exclusion 4 - Mod of JL - D53] (puzzle: Exclusion 4) |  | 15.8 nM |  |  |  | 
CAACGAUGAGGAUAUACAUGAGGAUCACCCAUGUGGUCCAGCAGCCAUUACGGCGAAGGUAGAAGGCGUUAUUA [Eternabot (L2) Solution 54] (Eterna round: R97, puzzle: Exclusion 3) |  |  |  | 349 nM |  | 386 nM
ACAAGCUUAAAAGGUGAUAACAUGAGGAUCACCCAUGUUCGUCUUAUAAAAAUAAAAAUAAAAAAUAAAAAAUAAAA [Sensor V2: 61] (Eterna round: R96, puzzle: Sensor v2, turn-off variant) |  |  |  | 23.1 nM | 114 nM | 24.2 nM
GAGAAGGUAGGAUAUACGAAUAAAUAGGGUAGUAAGAAGACACAUGAGGAUCACCCAUGUAGAAGGACCAAGAG [Mat - Exclusion 2 - Mod of my Tesla design - D37] (puzzle: Exclusion 2) | 34.6 nM | 19.2 nM | 21.8 nM |  |  | 
UUACGUUUAGAGGAUAUAUUAAGGAAGGUAACGAUAGAAGGCUAGACAUGAGGAUCACCCAUGUAUAUAGGGAU [JR_Ex6_Sub071] (Eterna round: R97, puzzle: Exclusion 6) |  |  |  | 141 nM |  | 54 nM
ACAAGCUUUUUGUUCGUCUUAUACACUCCUAAGAGGACAACAUGAGGAUCACCCAUGUAACAAAGACGGACUCAUGU [Sesor Array 11 - Jieux - Sensor v3, turn-off variant 2] (puzzle: Sensor v3, turn-off variant 2) | 17.7 nM | 129 nM | 12 nM |  |  | 
GAAAAGGUAGGAUAUACGAAGAAAAAGGGUAGAAAAAAAACACAUGAGGAUCACCCAUGUAGAAGGACCAAAAG [salish99_ex2_r3_028] (puzzle: Exclusion 2) | 54.4 nM | 23.8 nM | 20.2 nM |  |  | 
